Source: patent publication US20260097134A1, “COMPOSITIONS AND METHODS FOR PRECISE EDITING OF HUMAN DYSTROPHIN” (Mammoth Biosciences, Inc., priority 2023, published 2026)

Columns and labels:
[1] = system: mouse PCSK9 gene; experiment: In vivo editing of PCSK9 in muscle tissues via AAV9-4A delivery of CasPhi.12 and CasM.265466 variants, indels by NGS; set-up: species or system C57BL/6J mice; settings: for inducing indels in vivo at the PCSK9 locus across different muscle tissues: summary in words
Description: The purpose of the study was to assess the capability of two effector protein variants, CasPhi.12 L26R (a variant of CasPhi.12) and CasM.265466 D220R (a variant of CasM.265466), to edit nucleic acid sequences within muscle tissues in vivo. The study focused on PCSK9 as an exemplary gene target.
In this study, an AAV9-4A vector was employed as the delivery vehicle for introducing the effector protein and gRNA into the specific target tissues. The DNA encoding the effector protein (e.g., SaCas9, CasPhi.12 L26R, or CasM.265466 D220R) and its corresponding promoter (e.g., ck8e or spc5), along with the DNA encoding the gRNA containing the targeting spacer sequence specific to PCSK9 (referred to as PCSK9 in the plasmid) and its u6 promoter were cloned into the AAV9-4A plasmid between the AAV inverted terminal repeats (ITRs), creating AAV9 constructs as follows: • 1) pssAAV-ITR-u6-PCSK9-ck8e-saCas9-bGHpolya-ITR (PL26295) • 2) pssAAV-ITR-u6-PCSK9-ck8e-L26R-wpre-hGHpolya-ITR (PL26297) • 3) pssAAV-ITR-u6-PCSK9-spc5-12-L26R-wpre-hGHpolya-ITR (PL31718) • 4) pssAAV-ITR-u6-PCSK9-ck8e-D220R-wpre-hGHpolya-ITR (PL31719) • 5) pssAAV-ITR-u6-PCSK9-spc5-12-D220R-wpre-hGHpolya-ITR (PL31720) • 6) pscAAV-ITR-u6-PCSK9-Spc5-12-D220R-HSVpolyA-ITR (PL31721)
The sequences of the gRNA designed for use in conjunction with SaCas9, CasPhi.12 L26R, or CasM.265466 D220R for targeting the mouse PCSK9 gene are provided in TABLE 14.
6-week old male C57BL/6J mice were given a single intravenous (IV) bolus through the tail vein using a 1.0 cc syringe with a 27G-⅝″ needle or a single intramuscular (IM) bolus into the gastrocnemius.
4 weeks after the treatment, the mice were euthanized for assessment. Before collecting the tissues, the mice underwent whole-body perfusion via the left ventricle using 5.0-10.0 mL of PBS to remove any remaining blood from the tissues. Tissue samples weighing 100 mg were then dissected from the liver, heart, gastrocnemius, diaphragm, pectoral, and masseter, respectively, and placed on a plate for subsequent Next-Generation Sequencing (NGS) analysis. For the intramuscular (IM) groups, both the left and right gastrocnemius were weighed and harvested. For all other groups, only the left gastrocnemius was weighed and harvested.
The genomic DNA isolated from the muscle tissues was subject to NGS and aligned to a reference DNA sequence for the analysis of insertions or deletions (indels).

[2] = system: DMD; experiment: DMD exon precise editing in HEK293T cells with CasPhi.12 engineered variant, MCP-RT and retRNA, Amplicon Sequencing; type: cell-based, human; settings: MCP-RT SEQ ID NO: 1608, retRNA SEQ ID NO: 1590, guide SEQ ID NO: 1327, 72 hours
Description: HEK293T cells were transfected with plasmids encoding effector protein CasPhi.12 L26R, I471T, S223P, D703G (SEQ ID NO: 1607), a reverse transcriptase (RT) (SEQ ID NO: 1608), a retRNA (SEQ ID NO: 1590), and a guide nucleic acid targeting DMD (SEQ ID NO: 1327). The effector protein was not linked to the RT, but the RT was fused to an MS2 coat protein (MCP) capable of binding an MS2 aptamer loop in the retRNA. Cells were harvested 72 hours later and cell lysates were prepared for Amplicon Sequencing. The percentage of reads containing precise edits were analyzed.

Row | Molecule | indel rate in the PCSK9 gene ([1]; heart, PL26297 vector, IV administration, 4 weeks after treatment) | indel rate in the PCSK9 gene ([1]; heart, PL31718 vector, IV administration, 4 weeks after treatment) | indel rate in the PCSK9 gene ([1]; masseter, PL26297 vector, IM administration, 4 weeks after treatment) | indel rate in the PCSK9 gene ([1]; right gastrocnemius, PL26297 vector, IM administration, 4 weeks after treatment) | inducing indels in vivo at the PCSK9 locus across different muscle tissues [1] | precise editing, average (percentage of reads containing precise edits) [2] | precise editing, one replicate [2] | indel rate ([1]; diaphragm, PL31719 vector, IV administration, 4 weeks after treatment) | indel rate ([1]; heart, PL31719 vector, IV administration, 4 weeks after treatment) | indel rate ([1]; heart, second statement ('Additionally'), vector PL31719, IV administration) | fold greater indel rate in the heart compared to SaCas9 ([1]; heart, versus SaCas9 delivered in the PL26295 vector via IV administration) | indel rate ([1]; left gastrocnemius, PL31719 vector, IV administration, 4 weeks after treatment) | indel rate ([1]; left gastrocnemius, second statement ('Additionally'), vector PL31719, IV administration) | indel rate ([1]; liver, PL31719 vector, IV administration, 4 weeks after treatment) | indel rate ([1]; masseter, PL31719 vector, IV administration, 4 weeks after treatment) | indel rate ([1]; pectoral, PL31719 vector, IV administration, 4 weeks after treatment) | indel rate ([1]; pectoral, second statement ('Additionally'), vector PL31719, IV administration)
1 | CasPhi.12 L26R: variant of CasPhi.12, SEQ ID NO: 1603; delivered encoded in AAV9-4A vectors PL26297 or PL31718 (protein) MIKPTVSQFLTPGFKLIRNHSRTAGRKLKNEGEEACKKFVRENEIPKDECPNFQGGPAIANIIAKSREFTEWEIYQSSLAIQEVIFTLPKDKLPEPILKEEWRAQWLSEHGLDTVPYKEAAGLNLIIKNAVNTYKGVQVKVDNKNKNNLAKINRKNEIAKLNGEQEISFEEIKAFDDKGYLLQKPSPNKSIYCYQSVSPKPFITSKYHNVNLPEEYIGYYRKSNEPIVSPYQFDRLRIPIGEPGYVPKWQYTFLSKKENKRRKLSKRIKNVSPILGIICIKKDWCVFDMRGLLRTNHWKKYHKPTDSINDLFDYFTGDPVIDTKANVVRFRYKMENGIVNYKPVREKKGKELLENICDQNGSCKLATVDVGQNNPVAIGLFELKKVNGELTKTLISRHPTPIDFCNKITAYRERYDKLESSIKLDAIKQLTSEQKIEVDNYNNNFTPQNTKQIVCSKLNINPNDLPWDKMISGTHFISEKAQVSNKSEIYFTSTDKGKTKDVMKSDYKWFQDYKPKLSKEVRDALSDIEWRLRRESLEFNKLSKSREQDARQLANWISSMCDVIGIENLVKKNNFFGGSGKREPGWDNFYKPKKENRWWINAIHKALTELSQNKGKRVILLPAMRTSITCPKCKYCDSKNRNGEKFNCLKCGIELNADIDVATENLATVAITAQSMPKPTCERSGDAKKPVRARKAKAPEFHDKLAPSYTVVLREAV | about 8% | about 8% | about 3% | about 5% | highly efficient | – | – | – | – | – | – | – | – | – | – | – | –
2 | CasPhi.12 L26R, I471T, S223P, D703G: CasPhi.12 engineered variant, SEQ ID NO: 1607 (protein) MIKPTVSQFLTPGFKLIRNHSRTAGRKLKNEGEEACKKFVRENEIPKDECPNFQGGPAIANIIAKSREFTEWEIYQSSLAIQEVIFTLPKDKLPEPILKEEWRAQWLSEHGLDTVPYKEAAGLNLIIKNAVNTYKGVQVKVDNKNKNNLAKINRKNEIAKLNGEQEISFEEIKAFDDKGYLLQKPSPNKSIYCYQSVSPKPFITSKYHNVNLPEEYIGYYRKPNEPIVSPYQFDRLRIPIGEPGYVPKWQYTFLSKKENKRRKLSKRIKNVSPILGIICIKKDWCVFDMRGLLRTNHWKKYHKPTDSINDLFDYFTGDPVIDTKANVVRFRYKMENGIVNYKPVREKKGKELLENICDQNGSCKLATVDVGQNNPVAIGLFELKKVNGELTKTLISRHPTPIDFCNKITAYRERYDKLESSIKLDAIKQLTSEQKIEVDNYNNNFTPQNTKQIVCSKLNINPNDLPWDKMTSGTHFISEKAQVSNKSEIYFTSTDKGKTKDVMKSDYKWFQDYKPKLSKEVRDALSDIEWRLRRESLEFNKLSKSREQDARQLANWISSMCDVIGIENLVKKNNFFGGSGKREPGWDNFYKPKKENRWWINAIHKALTELSQNKGKRVILLPAMRTSITCPKCKYCDSKNRNGEKFNCLKCGIELNADIDVATENLATVAITAQSMPKPTCERSGDAKKPVRARKAKAPEFHGKLAPSYTVVLREAV | – | – | – | – | – | 1.6% | 2.1% | – | – | – | – | – | – | – | – | – | –
3 | CasM.265466 D220R: variant of CasM.265466, SEQ ID NO: 1602; delivered encoded in AAV9-4A vectors PL31719, PL31720, PL31721 (protein) MSVLTRKVQLIPVGDKEERDRVYKYLRDGIEAQNRAMNLYMSGLYFAAINEASKEDRKELNQLYSRIATSSKGSAYTTDIEFPTGLASTSTLSMAVRQDFTKSLKDGLMYGRVSLPTYRKDNPLFVDVRFVALRGTKQKYNGLYHEYKSHTEFLDNLYSSDLKVYIKFANDITFQVIFGNPRKSSALRSEFQNIFEEYYKVCQSSIQFSGTKIILNMAMRIPDKEIELDEDVCVGVDLGIAIPAVCALNKNRYSRVSIGSKEDFLRVRTKIRNQRKRLQTNLKSSNGGHGRKKKMKPMDRFRDYEANWVQNYNHYVSRQVVDFAVKNKAKYINLENLEGIRDDVKNEWLLSNWSYYQLQQYITYKAKTYGIEVRKINPYHTSQRCSCCGYEDAGNRPKKEKGQAYFKCLKCGEEMNADFNAARNIAMSTEFQSGKKTKKQKKEQHENK | – | – | – | – | highly efficient | – | – | about 10% | about 20% | about 11% | approximately 2 fold | about 15% | about 10% | about 25% | about 5% | about 13% | about 3%
